Reference: US6087375A, “Methods of treating or preventing thromboses” (priority 1999, dated 2000)

Key:
[1] = target: rabbit serum albumin (RSA) (Oryctolagus cuniculus, UniProt P49065); test: Mass spectrometric analysis of conjugation to RSA (HPLC/ESIMS, MALDI-TOFMS); format: binding; details: LC/MS; 15 μM RSA, 200 μM argatroban-C6 NHS ester, 1 hour (Example 8)
Method: All samples were analyzed using a high performance liquid chromatograph (HPLC) coupled in-line to an electrospray ionization (ESI) mass spectrometer (MS) which is termed HPLC/ESIMS. Some samples were also analyzed using a matrix-assisted laser desorption ionization (MALDI) time-of-flight (TOF) mass spectrometer which is termed (MALDI-TOFMS).
Samples for HPLC/ESIMS were either prepared as duplicate reaction samples or were part of the same reaction samples which were used in the ELISA assays described below. These samples were injected directly only the HPLC/ESIMS without any manipulation other than dilution with water, where the PBS, DMSO, and unreacted derivative molecules are separated from the protein-argatroban derivative molecule conjugate. Samples for MALDI-MS were first HPLC-purified and mixed 1:1 directly on the stainless steel analysis plate with a matrix of 10 mg/ml sinnapinic acid in 50% acetonitrile/50% water. The mixture was then dried with a gentle flow of air to allow for crystallization and inserted into the instrument for laser ionization.
The HPLC is a Hewlett Packard 1090 Series II liquid chromatogram with a diode array detector. The column used for separation is a Brownlee aquapore OD-300 reversed phase C18 column, 1 mm×10 cm, 300 Å pore size, 7 μm particle diameter. The mass spectrometer to which the HPLC is connected using fused Silica capillary tubing is a Sciex API-300 triple quadrupole mass spectrometer with an ionspray source to allow for atmospheric pressure ionization of a liquid flowing continuously into the instrument. The MALDI-TOFMS is a Perceptive Biosystems Voyager Elite DE instrument run in the linear mode.
The conjugate was prepared according to the following protocol. […] Sham samples consist of the RSA incubated for the same length of time at RT in 2% DMSO in PBS. Each of the samples was then concentrated to a final volume of 1.5 mL using Amicon Centricon 30 filtration/concentration devices. The concentrated samples were then desalted on Pierce's 5 ML Kwiksep excellulose plastic desalting columns. The excluded volumes containing RSA or argatroban-C6-RSA were then subjected to BCA microprotein estimation and lyophilization. In addition, these samples were analyzed by LC/MS, sandwich ELISA assays (described above) to measure thrombin binding and immunoblotting.

[2] = target: thrombin from human plasma (Homo sapiens, UniProt P00734); test: Km-based fluorogenic assay for inhibition of thrombin (Example 7); format: biochemical; set-up: from tissue; host or cells: human plasma; details: FIG. 9, ambient temperature, pH 7.2
Method: Thrombin from human plasma was obtained from Enzyme System Products, Dublin, Calif., in glycerol:water 1:1, 11.4 mg/ml, 3800 U/mg, MW 36,700, and stored undiluted at -20° C. It was freshly diluted the day of use.
To dilute for the assay, 0.67 μl (25 Units) of thrombin was pipetted into 5 ml of 0.1 mg/ml BSA (from Pierce, Catalog No. 23209, BSA fraction V, a 2 mg/ml stock in saline with sodium azide), in cold PBS (GIBCO, Catalog No. 14190-136, without calcium chloride and magnesium chloride, pH 7.2) and briefly vortexed, yielding a stock of 5 mU thrombin/μl.
The substrate was N-tBOC-β-Benzyl-Asp-Pro-Arg-7-Amido4-Methylcoumarin HCl and was obtained from Sigma, Catalog No. B4028, Lot 122H0070, F.W. 770.3. Five mg was dissolved in […] DMSO for a 4 mM stock. The stock was stored in 200 μl aliquots at -20° C. in the dark.
An alternative substrate was N-tBOC-Val-Pro-Arg-7-Amido4-Methylcoumarin HCl and was obtained from Sigma, Catalog No. B-9385, Lot 53H0805, F.W. of free base 627.7. Five mg was dissolved in 1.863 ml DMSO for a 4 mM stock. The stock was stored in 200 μl aliquots at -20° C. in the dark.
The fluorescent standard was 7-Amido4-Methylcoumarin and was obtained from Aldrich, Catalog No. 25,737-0, MW 175.19. […]
Initial readings were taken to ensure exclusion of rogue wells with abnormally high backgrounds (λ excitation at 360 nm, bandwidth […], λ emission, 460 nm, bandwidth 40 nm). Then, 25 μl of a 10×stock of the putative inhibitor were added per well, mixed for 5 seconds and read kinetically for 10 minutes at ambient temperature to assess background interference and/or any increase in hydrolysis of substrate due to inhibitor.
The thrombin assay was then initiated by adding 25 μl of thrombin/well with a multichannel pipettor and mixed for 5 seconds. The appearence of the fluorescent product (free 7-amido-4-methylcoumarin released from the peptide by thrombin) was followed simultaneously in 48 wells (one reading per minute for 30 minutes, λ excitation at 360 nm, bandwidth 40 nm, λ emission, 460 nm, bandwidth 40 nm). […]

thrombin = test: Sandwich ELISA for thrombin binding of conjugated proteins (anti-thrombin detection)
Method: (§1) The plates were incubated at room temperature for 30 minutes and washed as above.
as §1
Next, 100 μl/well of ABC-HRP (Vector, catalog no. PK4000) was added, each component diluted 1:500 in PBS, pH 7.4, with 0.1% TWEEN 20 and incubated 30 minutes at room temperature prior to use.

Sequence of rabbit serum albumin (RSA) (P49065 25-608): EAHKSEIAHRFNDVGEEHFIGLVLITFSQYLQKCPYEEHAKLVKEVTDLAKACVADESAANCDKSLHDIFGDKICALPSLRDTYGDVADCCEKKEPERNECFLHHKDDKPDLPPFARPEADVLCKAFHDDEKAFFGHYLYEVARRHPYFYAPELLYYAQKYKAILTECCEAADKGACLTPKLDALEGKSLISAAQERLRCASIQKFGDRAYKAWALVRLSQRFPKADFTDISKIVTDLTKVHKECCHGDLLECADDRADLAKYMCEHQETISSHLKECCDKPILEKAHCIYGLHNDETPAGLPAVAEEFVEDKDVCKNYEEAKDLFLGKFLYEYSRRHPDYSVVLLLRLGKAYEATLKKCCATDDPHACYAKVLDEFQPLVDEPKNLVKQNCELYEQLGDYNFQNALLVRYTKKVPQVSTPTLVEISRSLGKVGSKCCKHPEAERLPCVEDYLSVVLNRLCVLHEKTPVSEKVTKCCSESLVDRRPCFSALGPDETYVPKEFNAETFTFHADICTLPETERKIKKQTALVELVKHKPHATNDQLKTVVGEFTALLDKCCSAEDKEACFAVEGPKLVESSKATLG

Substance: RSA-argatroban-C6 conjugate: rabbit serum albumin covalently bound by argatroban-C6 NHS ester molecules
- average of tethered argatroban molecules conjugated to each RSA molecule [1]: 10 tethered argatroban molecules
- IC50 (estimated) [2]: ~25 nM
- absolute ELISA signal (thrombin; RSA conjugate versus HSA conjugate): the absolute signal is lower than that obtained with HSA
- concentration at which a significant signal above background was detected (thrombin; RSA conjugate, FIG. 3): approximately 30 ng/ml
